In paper PMC11596305, “A strategy to design protein-based antagonists against type I cytokine receptors” (PLOS Biology, 2024):

Experiments:
Assay in all cases: SPR; steady-state fitting of TPOR binding; further details in S1 Methods (not shown)
Details in all cases: both partners purified
[1] = molecular target: Thrombopoietin receptor (TPOR) (UniProt P40238 26-635)
buto_a3_t2 = molecular target: buto_a3_t2
buto_a3 = molecular target: buto_a3

B1: Thrombopoietin (TPO), bacterially expressed (ligand)
chain: SPAPPACDLRVLSKLLRDSHVLHSRLSQCPEVHPLPTPVLLPAVDFSLGEWKTQMEETKAQDILGAVTLLLEGVMAARGQLGPTCLSSLLGQLSGQVRLLLGALQSLLGTQLPPQGRTTAHKDPNAIFLSFQHLLRGKVRFLMLVGGSTLCVRRAPPTTAVPS
modifications: expressed in E. coli, non-glycosylated; N-terminal His tag/thrombin site omitted / The construct is described only in S1 Methods. The extracellular domain after the signal peptide is assumed as the …
Work on B1 yielded a Kd [1] of 4.09 ± 1.84 µM.

B2: Thrombopoietin receptor (TPOR) (receptor)
chain: QDVSLLASDSEPLKCFSRTFEDLTCFWDEEEAAPSGTYQLLYAYPREKPRACPLSSQSMPHFGTRYVCQFPDQEEVRLFFPLHLWVKNVFLNQTRTQRVLFVDSVGLPAPPSIIKAMGGSQPGELQISWEEPAPEISDFLRYELRYGPRDPKNSTGPTVIQLIATETCCPALQRPHSASALDQSPCAQPTMPWQDGPKQTSPSREASALTAEGGSCLISGLQPGNSYWLQLRSEPDGISLGGSWGSWSLPVTVDLPGDAVALGLQCFTLDLKNVTCQWQQQDHASSQGFFYHSRARCCPRDRYPIWENCEEEEKTNPGLQTPQFSRCHFKSRNDSIIHILVEVTTAPGTVHSYLGSPFWIHQAVRLPTPNLHWREISSGHLELEWQHPSSWAAQETCYQLRYTGEGHQDWKVLEPPLGARGGTLELRPRSRYRLQLRARLNGPTYQGPWSSWSDPTRVETATETAW
modifications: The construct is described only in S1 Methods. The extracellular domain after the signal peptide is assumed as the SPR receptor; glycosylation is possible.
Binder B2 has a Kd (buto_a3_t2) of 0.88 ± 0.16 µM and a Kd (buto_a3) of 10.6 ± 1.49 µM.
